Measured values reported in PMC4505504.

Target: Mycobacterium tuberculosis cytochrome bcc complex (QcrCAB) (M. tuberculosis) (UniProt P9WP35)
Test: pyridine hemochrome heme quantification

## Mycobacterium smegmatis cytochrome aa3 (cytochrome oxidase) (complex)
  stoichiometry N: 1
